Source: the RNAGym collection of RNA variant scans (doi:10.7554/elife.80360)

B1: HDV Ribozyme (parent)
chain: GGCCGGCAUGGUCCCAGCCUCCUCGCUGGCGCCGGCUGGGCAACAUUCCGAGGGGACCGUCCCCUCGGUAAUGGCGAAUGGGACCCA

Variants of: B1
Assay: self-cleavage, relative activity (ratio to wild type); higher = more cleavage; co-transcriptional

In order of falling self-cleavage:
1. GGCCGGCAUGGUCACAGCCUCCUCGCUGGCGCCGGCUGGGCAACAUUCCGAGGGGACCGUCCCCUCGGUAAUGGCGAAUGCGACCCA [C14A G81C]  1.22
2. GGCCGGCAUGGUCACAGCCUCCUCGCUGGCGCCGGCUGGGCAACAUUCCGAGGGGACCGUCCCCUCGGUAAUGGCGAAUGUGACCCA [C14A G81U]  1.15
3. GGCCGGCAUGGUCACAGCCUCCUCGCUGGCGCCGGCUGGGCAACAUUCCGAGGGGACCGUCCCCUCGGUAAUGGCGAAUGAGACCCA [C14A G81A]  0.911
4. GGCCGGCAUGGUCGCAGCCUCCUCGCUGGCGCCGGCUGGGCAACAUUCCGAGGGGACCGUCCCCUCGGUAAUGGCGAAUGGGACCCU [C14G A87U]  0.895
5. GGCCGGCAUGGUCGCAGCCUCCUCGCUGGCGCCGGCUGGGCAACAUUCCGAGGGGACCGUCCCCUCGGUGAUGGCGAAUGGGACCCA [C14G A70G]  0.831
6. GGCCGGCAUGGUCGCAGCCUCCUCGCUGGCGCCGGCUGGGCAACAUUCCGAGGGGACCGUCCCCUCGGUAAUGGCGAAUGGGACCCC [C14G A87C]  0.793
7. GGCCGGCAUGGUCGCAGCCUCCUCGCUGGCGCCGGCUGGGCAACAUUCCGAGGGGACCGUCCCCUCGGUAAUGGCGAAUGGGACCCA [C14G]  0.724
8. GGCCGGCAUGGUCGCAGCCUCCUCGCUGGCGCCGGCUGGGCAACAUUCCGCGGGGACCGUCCCCUCGGUAAUGGCGAAUGGGACCCA [C14G A51C]  0.712
9. GGCCGGCAUGGUCGCAGCCUCCUCGCUGGCGCCGGCUGGGCAACAUUCCGAGGGGACCGUCCCCUCGGUAGUGGCGAAUGGGACCCA [C14G A71G]  0.712
10. GGCCGGCAUGGUCACAGCCUCCUCGCUGGCGCCGGCUGGGCAACAUUCCGAGGGGACCGUCCCCGCGGUAAUGGCGAAUGGGACCCA [C14A U65G]  0.688
11. GGCCGGCAUGGUCACAGCCUCCUCGCUGGCGCCGGCUGGGCAACAUUCCGAGGGGACCGUCCCCUCGGGAAUGGCGAAUGGGACCCA [C14A U69G]  0.665
12. GGCCGGCAUGGUCGCAGCCUCCUCGCUGGCGCCGGCUGGGCAACAUUCCGAGGGGCCCGUCCCCUCGGUAAUGGCGAAUGGGACCCA [C14G A56C]  0.646
13. GGCCGGCAUGGUCACAGCCUCCUCGCUGGCGCCGGCUGGGCAACAUACCGAGGGGACCGUCCCCUCGGUAAUGGCGAAUGGGACCCA [C14A U47A]  0.639
14. GGCCGGCAUGGUCACAGCCUCCUCGCUGGCGCCGGCUGGGCAACAUUCCGAGGGGACCGUCCCCUCGGUAAUGGCGAAGGGGACCCA [C14A U79G]  0.575
15. GGCCGGCAUGGUCACAGCCUCCUCGCUGGCGCCGGCUGGGCAACAUUCCGAGGGGACCGUCCCCUCGGUAAUGGCGAAUAGGACCCA [C14A G80A]  0.565
16. GGCCGGCAUGGUCACAGCCUCCUCGCCGGCGCCGGCUGGGCAACAUUCCGAGGGGACCGUCCCCUCGGUAAUGGCGAAUGGGACCCA [C14A U27C]  0.554
17. GGCCGGCAUGGUCGCGGCCUCCUCGCUGGCGCCGGCUGGGCAACAUUCCGAGGGGACCGUCCCCUCGGUAAUGGCGAAUGGGACCCA [C14G A16G]  0.554
18. GGCCGGCAUGGUCGCAGCCUCCUCGCUGGCGCCGGCUGGGCAACAUUCCGAGGGGACCGUCCCCUCGGUUAUGGCGAAUGGGACCCA [C14G A70U]  0.529
19. GGCCGGCAUGGUCGCAGCCUCCUCGCUGGCGCCGGCUGGGCAACAUUCCGAGGGGACCGUCCCCUCGGUAUUGGCGAAUGGGACCCA [C14G A71U]  0.529
20. GGCCGGCAUGGUCGCAGCCUCCUCGCUGGCGCCGGCUGGGGAACAUUCCGAGGGGACCGUCCCCUCGGUAAUGGCGAAUGGGACCCA [C14G C41G]  0.525
21. GGCCGGCAUGGUCACAGCCUCCUCGCUGGCGCCGGCUGGGCAACAUUCCGAGGGGACCGACCCCUCGGUAAUGGCGAAUGGGACCCA [C14A U60A]  0.499
22. GGCCGGCAUGGUCGCAGCCUCCUCGCUGGCGCCGGCUGGGUAACAUUCCGAGGGGACCGUCCCCUCGGUAAUGGCGAAUGGGACCCA [C14G C41U]  0.462
23. GGCCGGCAUGGUCGCAGCCUCCUCGCUGGCGCCGGCUGGGCAACCUUCCGAGGGGACCGUCCCCUCGGUAAUGGCGAAUGGGACCCA [C14G A45C]  0.434
24. GGCCGGCAUGGUCGCAGCCUCCUCGCUGGCGCCGGCUGGGCAACAUUCCGAGGGGACCGUCCCCUCGGUAAUGGCGGAUGGGACCCA [C14G A77G]  0.415
25. GGCCGGCAUGGUCACAGCCUCCUCGCUGGCGCCGGCUGGGCAACAUUCCGAGGGGACCGUCCCCUCGGUAAUGGCGAAUGGAACCCA [C14A G82A]  0.415
26. GGCCGGCAUGGUCGCAGCCUCCUAGCUGGCGCCGGCUGGGCAACAUUCCGAGGGGACCGUCCCCUCGGUAAUGGCGAAUGGGACCCA [C14G C24A]  0.378
27. GGCCGGCAUGGUCACAGCCUCCUCGCUGGCGCCGGCUGGGCAACAUUCCGAGGGGACCGUCCCCUCGGUAAUGGCGAAAGGGACCCA [C14A U79A]  0.369
28. GGCCGGCAUGGUCGCAGCCUCCUCGCUGGCGCCGGCUGGGCAACAUUCAGAGGGGACCGUCCCCUCGGUAAUGGCGAAUGGGACCCA [C14G C49A]  0.35
29. GGCCGGCAUGGUCACAGCCUCCUCGCUGGCGCCGGCUGGGCAACAUUCCGAGGGGACCGUCCCCUCGGUAAAGGCGAAUGGGACCCA [C14A U72A]  0.332
30. GGCCGGCAUGGUCGCAGCCUCCUCGCUGGCGCCGGCUGGGCAACAUUGCGAGGGGACCGUCCCCUCGGUAAUGGCGAAUGGGACCCA [C14G C48G]  0.332
31. GGCCGGCAUGGUCGCAGCCUCCUCGCUGGCGCUGGCUGGGCAACAUUCCGAGGGGACCGUCCCCUCGGUAAUGGCGAAUGGGACCCA [C14G C33U]  0.32
32. GGCCGGCAUGGUCGCAGCCUCCUCGCUGGCGCCGGCUGGGCAACAUUCCGAGGGGACCGUCCCCUCGGUAAUGGCGAGUGGGACCCA [C14G A78G]  0.317
33. GGCCGGCAUGGUCGAAGCCUCCUCGCUGGCGCCGGCUGGGCAACAUUCCGAGGGGACCGUCCCCUCGGUAAUGGCGAAUGGGACCCA [C14G C15A]  0.312
34. GGCCGGCAUGGUCACAGCCUCCUCGCUGGCGCCGGCUGGGCAACAUUCCGAGGGGACCGUCCCCUCGGUAAUGGCGAAUUGGACCCA [C14A G80U]  0.273
35. GGCCGGCAUGGUCGCAGCCUCCUCGCUGGCGCCGGCUGGGCAACAUUCCGAGGGGACCGUCCCCUCGGUAAUGGCGAAUGGGGCCCA [C14G A83G]  0.268
36. GGCCGGCAUGGUCACAGCCUCCUCGCUGGCGCCGGCUGGGCAACACUCCGAGGGGACCGUCCCCUCGGUAAUGGCGAAUGGGACCCA [C14A U46C]  0.237
37. GGCCGGCAUGGUCACAGCCUCCGCGCUGGCGCCGGCUGGGCAACAUUCCGAGGGGACCGUCCCCUCGGUAAUGGCGAAUGGGACCCA [C14A U23G]  0.222
38. GGCCGGCAUGGUCGCAGCCUCCUCGCUGGCGCCGGCUGGGCAACAUUCCGAGGGGACCGUCCCCUCGGUACUGGCGAAUGGGACCCA [C14G A71C]  0.208
39. GGCCGGCAUGGUCACAGCCUCCUCGCUGGCGCCGGCUGGGCAACAAUCCGAGGGGACCGUCCCCUCGGUAAUGGCGAAUGGGACCCA [C14A U46A]  0.199
40. GGCCGGCAUGGUCGCAGCCUCCUCGCUGGCGCCGGCUGGGCAAGAUUCCGAGGGGACCGUCCCCUCGGUAAUGGCGAAUGGGACCCA [C14G C44G]  0.196
41. GGCCGGCAUGGUCGCAGCCUCCUCGCUGGCGCCGGAUGGGCAACAUUCCGAGGGGACCGUCCCCUCGGUAAUGGCGAAUGGGACCCA [C14G C36A]  0.192
42. GGCCGGCAUGGUCGCAGCCUCCUCGCUGGCGCCGGCUGGGCAACAUUCCGAGGGGACCGUCCCCUCGGUCAUGGCGAAUGGGACCCA [C14G A70C]  0.185
43. GGCCGGCAUGGUCACAGCCUCCUCGCUGGCGCCGGCUGGGCAACAUUCCGAGGGGACCGUCCCCUCGGUAAUGGCGAACGGGACCCA [C14A U79C]  0.173
44. GGCCGGCAUGGUCACAGCCUCCUCGCUGGCGCCGGCUGGGCAACAUUCCGAGGGGACCGUCCCCUCGGUAAGGGCGAAUGGGACCCA [C14A U72G]  0.151
45. GGCCGGCAUGGUCGCAGCCUCCUCGCUGGCGCCGGCUGGGCAUCAUUCCGAGGGGACCGUCCCCUCGGUAAUGGCGAAUGGGACCCA [C14G A43U]  0.138
46. GGCCGGCAUGGUCGCAGCCUUCUCGCUGGCGCCGGCUGGGCAACAUUCCGAGGGGACCGUCCCCUCGGUAAUGGCGAAUGGGACCCA [C14G C21U]  0.113
47. GGCCGGCAUGGUCGUAGCCUCCUCGCUGGCGCCGGCUGGGCAACAUUCCGAGGGGACCGUCCCCUCGGUAAUGGCGAAUGGGACCCA [C14G C15U]  0.111
48. GGCCGGCAUGGUCGCAGCCUCCUCGCUGGCGCCGGCUGGGCAACAUUCCGAGGGGACCGUCCCCUCGGUAAUGGCGACUGGGACCCA [C14G A78C]  0.108
49. GGCCGGCAUGGUCACAGCCUCCUCGCUGGCGCCGGCGGGGCAACAUUCCGAGGGGACCGUCCCCUCGGUAAUGGCGAAUGGGACCCA [C14A U37G]  0.104
50. GGCCGGCAUGGUCGCAGCCUCCUCGCUGGCGCCGGCUGGGCAACGUUCCGAGGGGACCGUCCCCUCGGUAAUGGCGAAUGGGACCCA [C14G A45G]  0.0875
51. GGCCGGCAUGGUCGCAGCUUCCUCGCUGGCGCCGGCUGGGCAACAUUCCGAGGGGACCGUCCCCUCGGUAAUGGCGAAUGGGACCCA [C14G C19U]  0.0852
52. GGCCGGCAUGGUCGCAGCCUCCUCGCUGGCGCCGGCUGGGCACCAUUCCGAGGGGACCGUCCCCUCGGUAAUGGCGAAUGGGACCCA [C14G A43C]  0.0504
53. GGCCGGCAUGGUCGCAGCCUACUCGCUGGCGCCGGCUGGGCAACAUUCCGAGGGGACCGUCCCCUCGGUAAUGGCGAAUGGGACCCA [C14G C21A]  0.0504
54. GGCCGGCAUGGUCGCAGCGUCCUCGCUGGCGCCGGCUGGGCAACAUUCCGAGGGGACCGUCCCCUCGGUAAUGGCGAAUGGGACCCA [C14G C19G]  0.0449
55. GGCCGGCAUGGUCACAGCCUCCUCGCUGGCGCCGGCAGGGCAACAUUCCGAGGGGACCGUCCCCUCGGUAAUGGCGAAUGGGACCCA [C14A U37A]  0.0405
56. GGCCGGCAUGGUCGCAGCCUCCUCGCUGGAGCCGGCUGGGCAACAUUCCGAGGGGACCGUCCCCUCGGUAAUGGCGAAUGGGACCCA [C14G C30A]  0.0396
57. GGCCGGCAUGGUCGCAGCCUCCUCGCUGGCGCGGGCUGGGCAACAUUCCGAGGGGACCGUCCCCUCGGUAAUGGCGAAUGGGACCCA [C14G C33G]  0
58. GGCCGGCAUGGUCGCAGCCUCCUCGCUGGCGCCGGCUGGGCAACAUUCCGAGGGGACCGUCCCCUCGGUAAUGGCGCAUGGGACCCA [C14G A77C]  0
59. GGCCGGCAUGGUCGCAGCCUCCUCGCUGGCGCCGGCUGGGCAACAUUCCGAGGGGACCGUCCCCUCGGUAAUGGCGUAUGGGACCCA [C14G A77U]  0
60. GGCCGGCAUGGUCACAGCCGCCUCGCUGGCGCCGGCUGGGCAACAUUCCGAGGGGACCGUCCCCUCGGUAAUGGCGAAUGGGACCCA [C14A U20G]  0
61. GGCCGGCAUGGUCGCAGCAUCCUCGCUGGCGCCGGCUGGGCAACAUUCCGAGGGGACCGUCCCCUCGGUAAUGGCGAAUGGGACCCA [C14G C19A]  0
62. GGCCGGCAUGGUCGGAGCCUCCUCGCUGGCGCCGGCUGGGCAACAUUCCGAGGGGACCGUCCCCUCGGUAAUGGCGAAUGGGACCCA [C14G C15G]  0
63. GGCCGGCAUGGUCGCAGCCUCCUCGCUGGCGCCGGCUGGGCAACAUUCCGAGGGGACCGUCCCCUCGGUAAUGGCGAAUGGGCCCCA [C14G A83C]  0
64. GGCCGGCAUGGUCGCAGGCUCCUCGCUGGCGCCGGCUGGGCAACAUUCCGAGGGGACCGUCCCCUCGGUAAUGGCGAAUGGGACCCA [C14G C18G]  0
